The text below walks through data of paper PMC7246612, “The In Vitro Non-Tetramerizing ZapA^I83E Mutant Is Unable to Recruit ZapB to the Division Plane In Vivo in Escherichia coli” (International Journal of Molecular Sciences, 2020).

Experiment [1] concerns the target T1, mKO–FtsZ (filamenting temperature-sensitive Z fused to mKO) (Escherichia coli, UniProt P0A9A6 1-383).
T1 construct: filamenting temperature-sensitive Z (FtsZ), Escherichia coli; also called pSAV072; pSAV–mKO–FtsZ; source: E. coli TB28 ∆zapA or WT strain, expressed from plasmid pSAV072, in living cells; not shown: mKO, N-terminal, kept
T1 sequence (looked up): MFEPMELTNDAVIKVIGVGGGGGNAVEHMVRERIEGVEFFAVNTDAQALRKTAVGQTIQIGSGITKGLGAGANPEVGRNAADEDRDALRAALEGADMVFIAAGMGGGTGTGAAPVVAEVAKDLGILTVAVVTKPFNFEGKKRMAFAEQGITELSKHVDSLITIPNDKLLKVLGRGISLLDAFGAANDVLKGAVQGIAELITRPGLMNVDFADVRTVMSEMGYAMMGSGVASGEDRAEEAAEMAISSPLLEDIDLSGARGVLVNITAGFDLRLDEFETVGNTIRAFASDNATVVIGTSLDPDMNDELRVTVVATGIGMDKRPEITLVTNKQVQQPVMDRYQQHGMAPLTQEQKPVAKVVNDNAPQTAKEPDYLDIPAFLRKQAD
As to the kind of experiment: FRET or BRET; in vivo FRET in E. coli TB28 ∆zapA cells; mKO fusion (donor) and mCh fusion (acceptor) expressed from plasmids; energy transfer efficiency (EfA) by spectral unmixing. To be noted: partners not purified. (Bioluminescence resonance energy transfer reports proximity on the nanometre scale.)

Experiment [2] addresses T2, mKO–PBP1a (inner membrane protein PBP1a fused to mKO) (UniProt P02918 1-850).
T2 construct: PBP1a, inner membrane protein; Negative control partner in the FRET assay; also called pBB004; pSAV–mKO–PBP1a; source: E. coli TB28 ∆zapA, expressed from plasmid pBB004, in living cells; not shown: mKO, N-terminal, kept
T2 sequence (looked up): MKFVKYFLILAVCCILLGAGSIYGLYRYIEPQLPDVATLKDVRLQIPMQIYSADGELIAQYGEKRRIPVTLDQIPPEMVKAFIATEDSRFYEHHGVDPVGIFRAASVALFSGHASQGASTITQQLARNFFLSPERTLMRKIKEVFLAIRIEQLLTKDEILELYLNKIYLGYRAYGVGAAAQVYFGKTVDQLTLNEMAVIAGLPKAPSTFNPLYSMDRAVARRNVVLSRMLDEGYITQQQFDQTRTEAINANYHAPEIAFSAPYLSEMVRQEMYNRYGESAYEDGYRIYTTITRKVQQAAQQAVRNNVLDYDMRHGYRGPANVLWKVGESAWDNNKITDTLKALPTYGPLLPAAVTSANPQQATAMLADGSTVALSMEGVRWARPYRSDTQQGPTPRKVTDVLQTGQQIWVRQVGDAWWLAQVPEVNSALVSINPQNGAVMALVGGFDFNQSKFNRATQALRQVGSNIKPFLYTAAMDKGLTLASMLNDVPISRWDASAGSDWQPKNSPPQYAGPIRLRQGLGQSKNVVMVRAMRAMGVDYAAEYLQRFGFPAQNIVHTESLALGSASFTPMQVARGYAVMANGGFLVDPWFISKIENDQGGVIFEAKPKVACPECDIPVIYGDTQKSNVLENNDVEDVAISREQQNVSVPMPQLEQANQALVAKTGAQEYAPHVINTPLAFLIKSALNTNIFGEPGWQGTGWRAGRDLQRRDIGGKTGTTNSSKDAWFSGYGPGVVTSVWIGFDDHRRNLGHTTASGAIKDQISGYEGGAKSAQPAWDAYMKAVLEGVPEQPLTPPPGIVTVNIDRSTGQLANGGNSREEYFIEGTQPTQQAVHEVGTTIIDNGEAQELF
Described as above. To be noted: partners not purified.

B1: mCh–ZapA (wild-type Z-associated protein A fused to mCh) (natural protein, Escherichia coli, UniProt P0ADS2 1-109, looked up)
chain: MSAQPVDIQIFGRSLRVNCPPDQRDALNQAADDLNQRLQDLKERTRVTNTEQLVFIAALNISYELAQEKAKTRDYAASMEQRIRMLQQTIEQALLEQGRITEKTNQNFE
notes: Z-associated protein A (ZapA), Escherichia coli; also called mCh–ZapA^WT; ZapA^WT; source: E. coli TB28 ∆zapA or WT strain, expressed from plasmid pSAV077, in living cells; not shown: mCh, N-terminal, kept
Regarding B1, the entries for the “EfA (energy transfer efficiency)” value in experiment [1] and in experiment [2] were 4% and less than 1.7%, respectively.

B2: mCh–ZapA^I83E (in vitro non-tetramerizing ZapA mutant fused to mCh) (natural protein, Escherichia coli, UniProt P0ADS2 1-109, looked up)
chain: MSAQPVDIQIFGRSLRVNCPPDQRDALNQAADDLNQRLQDLKERTRVTNTEQLVFIAALNISYELAQEKAKTRDYAASMEQRERMLQQTIEQALLEQGRITEKTNQNFE
notes: Z-associated protein A (ZapA), Escherichia coli, with I83E; made by exchanging zapA in pSAV077 with zapA^I83E from pRP071; also called pNM137; pTHV–mCh–ZapA^I83E; source: E. coli TB28 ∆zapA or WT strain, expressed from plasmid pNM137, in living cells; not shown: mCh, N-terminal, kept
Regarding B2, the “EfA (energy transfer efficiency)” value in experiment [2] was less than 1.7%.

B3: mCh–PBP1b (PBP1b fused to mCh) (natural protein, UniProt P02919 1-844, looked up)
chain: MAGNDREPIGRKGKPTRPVKQKVSRRRYEDDDDYDDYDDYEDEEPMPRKGKGKGKGRKPRGKRGWLWLLLKLAIVFAVLIAIYGVYLDQKIRSRIDGKVWQLPAAVYGRMVNLEPDMTISKNEMVKLLEATQYRQVSKMTRPGEFTVQANSIEMIRRPFDFPDSKEGQVRARLTFDGDHLATIVNMENNRQFGFFRLDPRLITMISSPNGEQRLFVPRSGFPDLLVDTLLATEDRHFYEHDGISLYSIGRAVLANLTAGRTVQGASTLTQQLVKNLFLSSERSYWRKANEAYMALIMDARYSKDRILELYMNEVYLGQSGDNEIRGFPLASLYYFGRPVEELSLDQQALLVGMVKGASIYNPWRNPKLALERRNLVLRLLQQQQIIDQELYDMLSARPLGVQPRGGVISPQPAFMQLVRQELQAKLGDKVKDLSGVKIFTTFDSVAQDAAEKAAVEGIPALKKQRKLSDLETAIVVVDRFSGEVRAMVGGSEPQFAGYNRAMQARRSIGSLAKPATYLTALSQPKIYRLNTWIADAPIALRQPNGQVWSPQNDDRRYSESGRVMLVDALTRSMNVPTVNLGMALGLPAVTETWIKLGVPKDQLHPVPAMLLGALNLTPIEVAQAFQTIASGGNRAPLSALRSVIAEDGKVLYQSFPQAERAVPAQAAYLTLWTMQQVVQRGTGRQLGAKYPNLHLAGKTGTTNNNVDTWFAGIDGSTVTITWVGRDNNQPTKLYGASGAMSIYQRYLANQTPTPLNLVPPEDIADMGVDYDGNFVCSGGMRILPVWTSDPQSLCQQSEMQQQPSGNPFDQSSQPQQQPQQQPAQQEQKDSDGVAGWIKDMFGSN
notes: PBP1b; Negative control in the FRET assay; also called pBB008; pTHV–mCh–PBP1b; source: E. coli TB28 ∆zapA, expressed from plasmid pBB008, in living cells; not shown: mCh, N-terminal, kept
For the molecule B3, the “EfA (energy transfer efficiency)” value in experiment [2] is less than 1.7%.
